The source of these data is US20020054882A1 (TAKARA SHUZO, published 2002).

Common to all, as to test: cell-based or functional assay
Assay [1] deals with HA molecule of A/Kaizuka/2/65 (H2N2) (influenza A virus A/Kaizuka/2/65 (H2N2)).
The target of assay [2] is HA molecule of A/Osaka/930/88 (H1N1) (influenza A virus A/Osaka/930/88 (H1N1)).
The target in assay [3] is HA molecule of influenza B virus strain B/Nagasaki/1/87 (influenza B virus B/Nagasaki/1/87).
In assay [4] the target is HA molecule of A1/FM/1/47 (H1N1) (influenza A virus A1/FM/1/47 (H1N1)).
The target of assay [5] is HA molecule of A/Yamagata/120/86 (H1N1) (influenza A virus A/Yamagata/120/86 (H1N1)).
The target of assay [6] is HA molecule of A/Bangkok/10/83 (H1N1) (influenza A virus A/Bangkok/10/83 (H1N1)).
In assay [7] the target is HA molecule of A/Ibaraki/1/90 (H3N2) (influenza A virus A/Ibaraki/1/90 (H3N2)).
The target in assay [8] is HA molecule of A/Izumi/5/65 (H2N2) (influenza A virus A/Izumi/5/65 (H2N2)).
For assay [9], the target named is HA molecule of A/Kumamoto/1/65 (H2N2) (influenza A virus A/Kumamoto/1/65 (H2N2)).
Assay [10] deals with HA molecule of A/Adachi/2/57 (H2N2) (influenza A virus A/Adachi/2/57 (H2N2)).
Assay [11] has as its target HA molecule of A/Fukuoka/C29/85 (H3N2) (influenza A virus A/Fukuoka/C29/85 (H3N2)).
Assay [12] addresses HA molecule of A2/Aichi/2/68 (H3N2) (influenza A virus A2/Aichi/2/68 (H3N2)).
The target of assay [13] is HA molecule of A/Sichuan/2/87 (H3N2) (influenza A virus A/Sichuan/2/87 (H3N2)).
The target in assay [14] is HA molecule of A/Kitakyushu/159/93 (H3N2) (influenza A virus A/Kitakyushu/159/93 (H3N2)).
Assay [15] concerns the target HA molecule of A/Suita/1/90 (H3N2) (influenza A virus A/Suita/1/90 (H3N2)).
Assay [16] addresses HA molecule of A/PR/8/34 (H1N1) (influenza A virus A/PR/8/34 (H1N1), UniProt P03452 18-565).

Sequence of HA molecule of A/PR/8/34 (H1N1) (P03452 18-565): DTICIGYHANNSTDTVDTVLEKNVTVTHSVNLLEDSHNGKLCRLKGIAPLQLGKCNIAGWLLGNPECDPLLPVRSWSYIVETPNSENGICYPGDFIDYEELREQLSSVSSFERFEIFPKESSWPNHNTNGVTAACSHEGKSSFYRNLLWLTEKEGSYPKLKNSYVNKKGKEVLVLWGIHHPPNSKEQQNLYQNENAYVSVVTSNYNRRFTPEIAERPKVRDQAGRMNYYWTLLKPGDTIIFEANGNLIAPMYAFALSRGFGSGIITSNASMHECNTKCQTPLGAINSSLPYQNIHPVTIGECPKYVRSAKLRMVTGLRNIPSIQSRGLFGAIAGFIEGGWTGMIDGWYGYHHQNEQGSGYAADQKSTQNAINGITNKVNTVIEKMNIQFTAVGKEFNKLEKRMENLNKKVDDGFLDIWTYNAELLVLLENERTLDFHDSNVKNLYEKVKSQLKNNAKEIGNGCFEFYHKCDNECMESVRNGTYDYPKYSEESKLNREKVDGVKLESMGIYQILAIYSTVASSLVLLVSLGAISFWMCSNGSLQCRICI

Consider monoclonal antibody C179, for which the HI (hemagglutination inhibition test) (dilution ratio of ascites fluid) in [1], in assay [2], in assay [3], in [4], in assay [5] and in assay [6] was below 32 in each case. Also, the HI (hemagglutination inhibition test) (dilution ratio of ascites fluid) in [7], in [8], in assay [9], in [10], in assay [11] and in assay [12] was below 32 in each case. Further, the HI (hemagglutination inhibition test) (dilution ratio of ascites fluid) in assay [13], in assay [14] and in assay [15] was below 32 throughout.

B1: monoclonal antibody C179 (antibody)
chain 1: EVKLVESGGGLVQPGGSLRLSCGTSGFTLTDDYMTWVRQPPGKALEWLGFIRDRANGYTTEYSASVKGRFTISRDNSQSIVYLQMNTLRVEDSATYYCARPKGYFPYAMDYWGQGT
chain 2: DIQMTQSPASQSASLGESVTITCLASQTIGTWLAWYQQKPGKSPQLLIYAATSLADGVPSRFSGSGSGTKFSFKISSLQAEDFVSYYCQQLYSTPW
With B1, the “HI (hemagglutination inhibition test)” value in assay [16] was < 32 dilution ratio of ascites fluid.
